Assay results: US20250145690A1 (US Dept. of Health and Human Services, published 2025)

Experiments:
Experiment in all cases: bead flow cytometry, AUC minus CD4
[1] = biological target: T1, HCoV-NL63 spike protein (Sino Biological 40604-V08B) (HCoV-NL63, UniProt Q6Q1S2 19-1296)
T1 sequence: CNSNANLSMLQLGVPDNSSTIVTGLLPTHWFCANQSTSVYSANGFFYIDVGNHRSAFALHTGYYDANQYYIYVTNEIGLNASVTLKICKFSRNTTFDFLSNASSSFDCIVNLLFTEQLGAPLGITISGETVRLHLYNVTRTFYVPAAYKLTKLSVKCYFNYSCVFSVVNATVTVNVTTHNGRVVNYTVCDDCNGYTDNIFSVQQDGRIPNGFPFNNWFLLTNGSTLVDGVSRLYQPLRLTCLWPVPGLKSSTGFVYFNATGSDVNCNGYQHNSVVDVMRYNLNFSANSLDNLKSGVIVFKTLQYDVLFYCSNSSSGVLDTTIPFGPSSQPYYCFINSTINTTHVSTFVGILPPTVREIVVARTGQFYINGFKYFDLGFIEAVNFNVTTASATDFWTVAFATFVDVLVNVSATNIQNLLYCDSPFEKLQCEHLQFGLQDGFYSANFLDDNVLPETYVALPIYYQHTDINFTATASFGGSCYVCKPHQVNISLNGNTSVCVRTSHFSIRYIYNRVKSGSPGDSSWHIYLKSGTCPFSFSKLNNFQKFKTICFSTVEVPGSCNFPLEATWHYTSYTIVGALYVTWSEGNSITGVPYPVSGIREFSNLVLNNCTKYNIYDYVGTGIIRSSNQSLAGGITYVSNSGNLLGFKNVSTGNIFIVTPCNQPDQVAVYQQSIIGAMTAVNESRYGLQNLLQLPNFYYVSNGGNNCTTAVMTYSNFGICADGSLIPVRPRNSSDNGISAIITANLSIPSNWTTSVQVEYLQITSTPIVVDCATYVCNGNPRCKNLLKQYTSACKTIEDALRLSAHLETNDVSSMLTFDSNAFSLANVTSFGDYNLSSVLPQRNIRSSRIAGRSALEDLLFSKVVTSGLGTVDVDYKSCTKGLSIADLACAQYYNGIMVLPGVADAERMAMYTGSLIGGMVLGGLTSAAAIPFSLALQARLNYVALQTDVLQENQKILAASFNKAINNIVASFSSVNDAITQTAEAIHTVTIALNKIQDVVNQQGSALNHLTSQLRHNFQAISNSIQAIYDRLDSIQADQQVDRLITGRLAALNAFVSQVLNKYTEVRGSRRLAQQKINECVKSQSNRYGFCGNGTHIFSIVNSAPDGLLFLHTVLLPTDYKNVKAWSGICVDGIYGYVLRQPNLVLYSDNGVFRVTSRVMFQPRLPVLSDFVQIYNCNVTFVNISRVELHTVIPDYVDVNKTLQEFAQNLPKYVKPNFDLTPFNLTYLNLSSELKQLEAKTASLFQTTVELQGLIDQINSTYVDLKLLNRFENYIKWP

[2] = biological target: T2, HCoV-229E spike protein (Sino Biological 40605-V08B) (HCoV-229E, UniProt P15423 16-1115)
T2 sequence: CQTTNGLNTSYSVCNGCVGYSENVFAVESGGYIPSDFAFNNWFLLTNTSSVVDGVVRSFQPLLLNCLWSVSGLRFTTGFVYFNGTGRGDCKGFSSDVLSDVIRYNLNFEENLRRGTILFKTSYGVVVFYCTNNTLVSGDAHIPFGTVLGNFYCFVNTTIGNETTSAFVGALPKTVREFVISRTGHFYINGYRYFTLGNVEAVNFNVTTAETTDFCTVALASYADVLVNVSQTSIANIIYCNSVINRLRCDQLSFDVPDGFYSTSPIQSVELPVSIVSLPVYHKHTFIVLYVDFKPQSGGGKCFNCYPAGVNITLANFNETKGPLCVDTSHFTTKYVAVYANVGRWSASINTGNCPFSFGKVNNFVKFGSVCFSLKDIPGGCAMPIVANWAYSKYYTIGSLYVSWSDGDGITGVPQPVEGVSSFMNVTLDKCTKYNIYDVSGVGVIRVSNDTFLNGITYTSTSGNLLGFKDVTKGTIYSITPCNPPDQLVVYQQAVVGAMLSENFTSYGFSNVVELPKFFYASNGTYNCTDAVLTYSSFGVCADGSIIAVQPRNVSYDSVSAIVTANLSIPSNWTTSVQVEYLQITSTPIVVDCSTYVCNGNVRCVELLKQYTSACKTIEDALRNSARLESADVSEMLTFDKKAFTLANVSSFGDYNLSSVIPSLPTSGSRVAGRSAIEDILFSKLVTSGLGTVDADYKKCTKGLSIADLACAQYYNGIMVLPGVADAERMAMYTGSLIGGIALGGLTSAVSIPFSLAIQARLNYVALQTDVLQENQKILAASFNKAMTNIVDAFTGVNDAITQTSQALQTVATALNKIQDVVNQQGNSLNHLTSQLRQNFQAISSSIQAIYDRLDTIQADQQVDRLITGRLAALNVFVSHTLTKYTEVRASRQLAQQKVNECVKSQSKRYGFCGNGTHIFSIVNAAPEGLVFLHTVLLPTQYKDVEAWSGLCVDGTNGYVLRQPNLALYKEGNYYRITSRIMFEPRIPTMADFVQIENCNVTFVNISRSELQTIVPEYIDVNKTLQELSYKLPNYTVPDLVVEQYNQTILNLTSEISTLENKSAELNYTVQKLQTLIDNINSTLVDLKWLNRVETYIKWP

[3] = biological target: SARS-CoV-2 spike receptor binding domain (RBD), recombinant (SARS-CoV-2, UniProt P0DTC2 319-541)
[4] = biological target: SARS-CoV-2 spike N-terminal domain (NTD), recombinant (SARS-CoV-2, UniProt P0DTC2 14-305)

Measured: binding result

B1: COV49-54 (antibody, V domains shown)
VH: EVQLVESGGGLVQPGGSLRLSCAASGFIVSSNYMSWVRQAPGKGLEWVSMIYSGGSTVYADSVKGRFTISRDISKNTLYLQMNSLRAEDTAVYYCALETFDYWGQGTLVTVSS
VL: DIQMTQSPSSLSASVGDRVTITCRASQGITNHLAWYQQKPGKVPKLLIYAASTLQSGVPSRFSGSGYGTDFTLTISSLQPEDVASYYCQKYDSAPRTFGQGTKVEIK
no binding (tested: 200 µg/mL): all assays above

B2: COV23-01 (antibody, V domains shown)
VH: QVTLKESGPVLVKPTETLTLTCTVSGFSLSNTKMGVSWIRQPPGKALEWLAHIFSNDRKSYTTSLKSRLTISEDTSKSQIVLTMTNMDPVDTATYYCARIGAGGTYNFYYYMDVWGKGTTVTVSS
VL: EIVLTQSPATLSLSPGERATLSCRASQSVSSYLAWYQQKPGQAPRLLIYDASNRATGIPARFSGSGSGTDFTLTISSLEPEDFAVYYCQQRSLYYTFGQGTKLEIK
no binding (tested: 200 µg/mL): all assays above

B3: COV57-34 (antibody, V domains shown)
VH: QVQLVQSGTEVKKPGSSVKVSCRASGGTLSSYSVSWVRQAPGQGLEWMGRIIPILDKKTYAQKYQGRVTIIADTSTSTVYMELSSLKSDDSAVYYCTTFDYDTSGQRDQHDYWGQGTPVTVSS
VL: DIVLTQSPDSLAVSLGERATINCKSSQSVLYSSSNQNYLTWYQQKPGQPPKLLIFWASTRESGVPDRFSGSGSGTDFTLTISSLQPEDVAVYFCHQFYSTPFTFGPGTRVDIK
no binding (tested: 200 µg/mL): all assays above

B4: COV57-13 (antibody, V domains shown)
VH: QVQLVQSGTEVKKPGSSVKVSCRASGGTLSSYSVSWVRQAPGQGLEWMGRIIPILDKKTYAQKYQGRVTIIADTSTSTVYMELSSLKSEDSAVYYCTTFDYDTSGQRDQHDYWGQGTLVTVSS
VL: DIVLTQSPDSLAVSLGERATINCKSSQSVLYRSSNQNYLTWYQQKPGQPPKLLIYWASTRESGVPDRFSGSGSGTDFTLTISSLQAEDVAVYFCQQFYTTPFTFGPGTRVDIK
no binding (tested: 200 µg/mL): all assays above

B5: COV77-09 (antibody, V domains shown)
VH: EVQLVESGGGLVQPGRSLTLSCSGSGFTFGDYSMSWVRQAPGKGLEWLGFIRSQTYGGTTQYAASVQGRFTILRDDSKSIAYLQMNSLKTEDTAVYYCTRNYGVGDYWGQGTLVTVSS
VL: DIVMTQSPASLAVSLGERATIHCRSSLSVLNSSNNKNYLAWYQQKAGQPPKLLMYWASTRESGVPERFSGSGSGTDFTLTISSLEAGDVAVYYCQQYYDKLSLTFGGGTKVEIK
no binding (tested: 200 µg/mL): all assays above

B6: COV57-38 (antibody, V domains shown)
VH: QVQLVESGGGVVQPGRSLRLSCEASGFNFNNYGMHWVRQAPGKGLEWVAVISYEGSKKYYEDSVRGRFTISRDFSKNTLYLQMNSLRAEDTAVYYCAKANEIFWLGQFKNDALDFWGQGTMVTVSS
VL: QSVLTQPPSASGTPGQRVAVSCSGSSSNIGTNFVNWYQHLPRTAPKLLIYRDNQRPSGVPDRFSGSKSGTSASLAISGLQSEDEADYYCAVWDDSLNGQVFGGGTKVTVL
no binding (tested: 200 µg/mL): all assays above

B7: COV44-74 (antibody, V domains shown)
VH: QVQLVQSGAEVKKPGASVKVSCKASGYTFSSYYMNWVRQAPGQGLEWVGLISPSAGYTAYAQMFQGRVTMTRDTSTSTVYMELSSLRSEDTAVYYCARVAVAGPNDYWGQGTLVTVSS
VL: EIVLTQSPGTLSLSPGERATLSCRASQSISSSYLAWYQQKPGQAPRLVILAASTRATGIPDRFSGSGSGTDFTLTISRLEPEDFALYYCQHYRSSPPLWTFGQGTKVEIR
no binding (tested: 200 µg/mL): all assays above

B8: COV44-37 (antibody, V domains shown)
VH: QVQLVQSGAEVKKPGASVMLSCRASGYTFINDYMHWVRQAPGEGFEWMGIINPTGDGTKFAQKFQGRVTMTRDSSTTTVHMELRSLTSGDTAVYFCATGGRQSAFDIWGQGTVVIVSS
VL: DIVMTQSPLSLPVTPGESASISCRSSQSLLQNNGYNYLDWYLQKPGQSPQLLIYLGSYRASGVPDRFSGSGSGTDFTLKISRVEAEDVGVYYCVQAQQAPPLYTFGQGTKLQIK
no binding (tested: 200 µg/mL): all assays above
